This note sets out measurements from PMC12301328, “Identification of a preferred DNA binding sequence and novel regulon member for CadR in Pseudomonas aeruginosa PAO1”.

Data set [1] concerns the target CadR from Pseudomonas aeruginosa PAO1 (PaCadR) (Pseudomonas aeruginosa PAO1). As to the kind of experiment: native gel or EMSA; adaptation of a Ferguson plot of the DNA-bound PaCadR species on native PAGE (Supplementary Figure S6); PaCadR bound to its consensus DNA. For orientation: In EMSA bound probe runs differently from free probe, usually more slowly.
For data set [2] the target is unchanged. As to the kind of experiment: not stated; purified PaCadR in solution (Supplementary Figure S7); method not given.
The target of data set [3] is T1, PaCadR (Pseudomonas aeruginosa PAO1, UniProt Q9HXV1 1-156).
T1 sequence: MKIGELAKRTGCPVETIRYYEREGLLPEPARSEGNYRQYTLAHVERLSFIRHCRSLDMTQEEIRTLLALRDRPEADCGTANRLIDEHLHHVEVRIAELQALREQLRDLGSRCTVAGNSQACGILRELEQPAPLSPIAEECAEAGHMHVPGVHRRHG
As to the kind of experiment: BLI; no added metal; EMSA: 1X CutSmart buffer, 1 mM DTT, 3 mM EDTA, 5 nM each DNA, 37 C, 20 min; BLI: 20 mM Tris-Cl pH 7.5, 100 mM NaCl, 0.01% Tween-20, 1 mM DTT, 37 C. As to conditions: protein: recombinant; chain copies: 2; label: 5' biotin on ST2R strand; blunt. A general note: In BLI a coated tip is dipped into the sample, and binding shifts an interference pattern.

The target of data set [4] is T1, PaCadR. As to the kind of experiment: EMSA; 50 nM PaCadR; not significantly different from WT; EMSA: 1X CutSmart buffer, 1 mM DTT, 3 mM EDTA, 5 nM each DNA, 37 C, 20 min; BLI: 20 mM Tris-Cl pH 7.5, 100 mM NaCl, 0.01% Tween-20, 1 mM DTT, 37 C. As to conditions: protein: recombinant; chain copies: 2; label: 5' IRDye-700 on ST2R strand; blunt.
In data set [5] the target is T1, PaCadR. Nature of the data set: EMSA; 20-80 nM PaCadR; EMSA: 1X CutSmart buffer, 1 mM DTT, 3 mM EDTA, 5 nM each DNA, 37 C, 20 min; BLI: 20 mM Tris-Cl pH 7.5, 100 mM NaCl, 0.01% Tween-20, 1 mM DTT, 37 C. As to conditions: protein: recombinant; chain copies: 2; label: 5' IRDye-800 on ConL strand; blunt.

For the molecule “CadR from Pseudomonas aeruginosa PAO1 (PaCadR) (from UniProt A0A0H2ZEP1 1-156) (natural protein)”, the stoichiometry N in data set [1] and in data set [2] was 2 each time.

B1: Control (BLI) (dsDNA)
DNA 1: CTAGGAATTCGTGCAGAGGTGACGTCATAGAATTCGCATCCCTCCAGAAGCTTGGAC
DNA 2: GTCCAAGCTTCTGGAGGGATGCGAATTCTATGACGTCACCTCTGCACGAATTCCTAG
On to B1, for which the binding result with PaCadR [3] is “no binding”.

B2: ST2_CadR_mt12 (dsDNA)
DNA 1: CTAGGAATTCGTGCAGAGGTGAAACCCTGTAGTGACTACAGGGTTCATCCCTCCAGAAGCTTGGAC
DNA 2: GTCCAAGCTTCTGGAGGGATGAACCCTGTAGTCACTACAGGGTTTCACCTCTGCACGAATTCCTAG
Consider B2, for which the binding result in the data set with PaCadR [4] was “binds”.

B3: Control (EMSA) (dsDNA)
DNA 1: CCTCTCTATGGGCAGTCGGTGATCTAGGAATTCGTGCAGAGGTGACGTCATAGAATTCGCATCCCTCCAGAAGCTTGGAC
DNA 2: GTCCAAGCTTCTGGAGGGATGCGAATTCTATGACGTCACCTCTGCACGAATTCCTAGATCACCGACTGCCCATAGAGAGG
Consider B3, for which the binding result with PaCadR [5] is listed as “no binding”.
